Measured values: patent US20150344570A1 (published 2015)

B1: GpH7-A5/GpH7-B3 variant E269_01G/GpL16-k0 (antibody, human IgG1, kappa)
heavy 1: not shown
heavy 2: not shown
light: DIVMTQSPLSLPVTPGEPASISCQASESLVHSNRNTYLHWYLQKPGQSPQLLIYKVSNRFSGVPDRFSGSGSGTDFTLKISRVEAEDVGVYYCSQNTHVPPTFGQGTKVEIERTVAAPSVFIFPPSDEQLKSGTASVVCLLNNFYPREAKVQWKVDNALQSGNSQESVTEQDSKDSTYSLSSTLTLSKADYEKHKVYACEVTHQGLSSPVTKSFNRGEC
notes: also called He Ab E269_01G
B2: GpH7-A5/GpH7-B3 variant A327_10E/GpL16-k0 (antibody, human IgG1, kappa)
heavy 1: not shown
heavy 2: not shown
light: B1 light
notes: also called He Ab A327_10E
B3: GpH7-A5/GpH7-B3 variant A327_06M/GpL16-k0 (antibody, human IgG1, kappa)
heavy 1: not shown
heavy 2: not shown
light: B1 light
notes: also called He Ab A327_06M
B4: GpH7-A5/GpH7-B3 variant A327_03V/GpL16-k0 (antibody, human IgG1, kappa)
heavy 1: not shown
heavy 2: not shown
light: B1 light
notes: also called He Ab A327_03V
B5: GpH7-A5/GpH7-B3 variant A327_09D/GpL16-k0 (antibody, human IgG1, kappa)
heavy 1: not shown
heavy 2: not shown
light: B1 light
notes: also called He Ab A327_09D
B6: GpH7-A5/GpH7-B3 variant A327_07I/GpL16-k0 (antibody, human IgG1, kappa)
heavy 1: not shown
heavy 2: not shown
light: B1 light
notes: also called He Ab A327_07I
B7: GpH7-B3 variant H268_05P/GpL16-k0 (antibody, human IgG1, kappa)
heavy: not shown
light: B1 light
notes: also called Ho Ab H268_05P
B8: GpH7-B3 variant K334_06M/GpL16-k0 (antibody, human IgG1, kappa)
heavy: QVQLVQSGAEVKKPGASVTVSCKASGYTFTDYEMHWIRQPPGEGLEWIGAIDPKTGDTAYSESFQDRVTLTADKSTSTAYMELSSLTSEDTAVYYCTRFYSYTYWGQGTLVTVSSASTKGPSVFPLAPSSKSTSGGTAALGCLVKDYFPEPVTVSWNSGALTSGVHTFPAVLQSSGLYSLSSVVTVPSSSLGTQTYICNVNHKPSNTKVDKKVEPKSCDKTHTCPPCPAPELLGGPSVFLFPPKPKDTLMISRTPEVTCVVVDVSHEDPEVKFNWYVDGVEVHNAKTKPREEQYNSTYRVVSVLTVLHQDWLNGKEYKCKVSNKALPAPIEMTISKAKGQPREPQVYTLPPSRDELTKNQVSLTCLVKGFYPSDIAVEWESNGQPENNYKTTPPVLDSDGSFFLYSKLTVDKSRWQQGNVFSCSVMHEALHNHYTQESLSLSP
light: B1 light
notes: also called Ho Ab K334_06M
B9: GpH7-B3 variant I336_02A/GpL16-k0 (antibody, human IgG1, kappa)
heavy: not shown
light: B1 light
notes: also called Ho Ab I336_02A
B10: GpH7-B3 variant P238_04F/GpL16-k0 (antibody, human IgG1, kappa)
heavy: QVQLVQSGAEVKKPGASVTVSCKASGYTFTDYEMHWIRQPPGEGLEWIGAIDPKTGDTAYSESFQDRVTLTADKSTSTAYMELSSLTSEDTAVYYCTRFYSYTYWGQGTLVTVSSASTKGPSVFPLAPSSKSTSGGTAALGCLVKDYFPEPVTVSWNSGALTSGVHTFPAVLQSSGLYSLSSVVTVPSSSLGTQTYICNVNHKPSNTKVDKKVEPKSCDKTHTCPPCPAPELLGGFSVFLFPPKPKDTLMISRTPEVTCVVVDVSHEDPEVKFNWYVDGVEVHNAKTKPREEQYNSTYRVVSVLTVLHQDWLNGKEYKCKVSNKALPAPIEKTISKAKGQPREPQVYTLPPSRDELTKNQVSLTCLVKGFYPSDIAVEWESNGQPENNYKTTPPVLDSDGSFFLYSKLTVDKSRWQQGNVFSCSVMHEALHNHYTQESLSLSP
light: B1 light
notes: also called Ho Ab P238_04F
B11: GpH7-B3 variant P271_03V/GpL16-k0 (antibody, human IgG1, kappa)
heavy: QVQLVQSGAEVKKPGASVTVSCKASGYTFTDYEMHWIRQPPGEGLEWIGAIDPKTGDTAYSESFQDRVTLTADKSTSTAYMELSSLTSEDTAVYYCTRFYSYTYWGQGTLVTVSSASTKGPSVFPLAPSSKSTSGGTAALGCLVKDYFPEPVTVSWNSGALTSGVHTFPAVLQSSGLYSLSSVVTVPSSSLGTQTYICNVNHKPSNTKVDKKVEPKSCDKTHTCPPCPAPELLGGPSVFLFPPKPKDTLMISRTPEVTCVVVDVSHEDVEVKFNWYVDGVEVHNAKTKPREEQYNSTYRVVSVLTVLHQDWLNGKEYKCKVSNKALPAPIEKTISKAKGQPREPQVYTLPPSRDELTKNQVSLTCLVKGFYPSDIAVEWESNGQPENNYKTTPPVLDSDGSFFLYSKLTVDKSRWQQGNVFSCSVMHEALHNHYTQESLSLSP
light: B1 light
notes: also called Ho Ab P271_03V
B12: GpH7-B3 variant Q295_16H/GpL16-k0 (antibody, human IgG1, kappa)
heavy: not shown
light: B1 light
notes: also called Ho Ab Q295_16H
B13: GpH7-B3 variant P271_14T/GpL16-k0 (antibody, human IgG1, kappa)
heavy: not shown
light: B1 light
notes: also called Ho Ab P271_14T
B14: GpH7-B3 variant L234_03V/GpL16-k0 (antibody, human IgG1, kappa)
heavy: not shown
light: B1 light
notes: also called Ho Ab L234_03V
B15: GpH7-B3 variant P238_06M/GpL16-k0 (antibody, human IgG1, kappa)
heavy: not shown
light: B1 light
notes: also called Ho Ab P238_06M
B16: GpH7-B3 variant P271_02A/GpL16-k0 (antibody, human IgG1, kappa)
heavy: not shown
light: B1 light
notes: also called Ho Ab P271_02A
B17: GpH7-B3 variant I336_18N/GpL16-k0 (antibody, human IgG1, kappa)
heavy: not shown
light: B1 light
notes: also called Ho Ab I336_18N
B18: GpH7-B3 variant L234_04F/GpL16-k0 (antibody, human IgG1, kappa)
heavy: not shown
light: B1 light
notes: also called Ho Ab L234_04F
B19: GpH7-B3 variant P329_02A/GpL16-k0 (antibody, human IgG1, kappa)
heavy: not shown
light: B1 light
notes: also called Ho Ab P329_02A
B20: GpH7-B3 variant I336_06M/GpL16-k0 (antibody, human IgG1, kappa)
heavy: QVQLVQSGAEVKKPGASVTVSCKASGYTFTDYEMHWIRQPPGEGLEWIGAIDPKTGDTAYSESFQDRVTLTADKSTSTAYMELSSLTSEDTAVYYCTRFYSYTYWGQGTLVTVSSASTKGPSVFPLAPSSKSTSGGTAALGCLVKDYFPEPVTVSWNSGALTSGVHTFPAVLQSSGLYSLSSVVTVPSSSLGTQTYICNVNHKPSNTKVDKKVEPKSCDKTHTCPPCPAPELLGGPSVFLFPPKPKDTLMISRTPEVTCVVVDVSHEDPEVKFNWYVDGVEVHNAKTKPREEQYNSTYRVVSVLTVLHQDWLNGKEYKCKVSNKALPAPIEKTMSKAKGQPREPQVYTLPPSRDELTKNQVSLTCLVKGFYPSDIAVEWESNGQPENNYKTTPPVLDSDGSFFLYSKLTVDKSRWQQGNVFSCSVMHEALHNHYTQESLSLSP
light: B1 light
notes: also called Ho Ab I336_06M
B21: GpH7-B3 variant K326_15Y/GpL16-k0 (antibody, human IgG1, kappa)
heavy: not shown
light: B1 light
notes: also called Ho Ab K326_15Y
B22: GpH7-B3 variant P238_10E/GpL16-k0 (antibody, human IgG1, kappa)
heavy: not shown
light: B1 light
notes: also called Ho Ab P238_10E
B23: GpH7-B3 variant K334_10E/GpL16-k0 (antibody, human IgG1, kappa)
heavy: not shown
light: B1 light
notes: also called Ho Ab K334_10E
B24: GpH7-B3 variant L328_19Q/GpL16-k0 (antibody, human IgG1, kappa)
heavy: not shown
light: B1 light
notes: also called Ho Ab L328_19Q
B25: GpH7-B3 variant Q295_11K/GpL16-k0 (antibody, human IgG1, kappa)
heavy: not shown
light: B1 light
notes: also called Ho Ab Q295_11K
B26: GpH7-B3 variant I336_03V/GpL16-k0 (antibody, human IgG1, kappa)
heavy: not shown
light: B1 light
notes: also called Ho Ab I336_03V
B27: GpH7-B3 variant P271_16H/GpL16-k0 (antibody, human IgG1, kappa)
heavy: not shown
light: B1 light
notes: also called Ho Ab P271_16H
B28: GpH7-B3 variant L234_06M/GpL16-k0 (antibody, human IgG1, kappa)
heavy: not shown
light: B1 light
notes: also called Ho Ab L234_06M
B29: GpH7-B3 variant I336_04F/GpL16-k0 (antibody, human IgG1, kappa)
heavy: not shown
light: B1 light
notes: also called Ho Ab I336_04F
B30: GpH7-B3 variant L234_10E/GpL16-k0 (antibody, human IgG1, kappa)
heavy: not shown
light: B1 light
notes: also called Ho Ab L234_10E
B31: GpH7-B3 variant I336_01G/GpL16-k0 (antibody, human IgG1, kappa)
heavy: not shown
light: B1 light
notes: also called Ho Ab I336_01G
B32: GpH7-B3 variant K334_12R/GpL16-k0 (antibody, human IgG1, kappa)
heavy: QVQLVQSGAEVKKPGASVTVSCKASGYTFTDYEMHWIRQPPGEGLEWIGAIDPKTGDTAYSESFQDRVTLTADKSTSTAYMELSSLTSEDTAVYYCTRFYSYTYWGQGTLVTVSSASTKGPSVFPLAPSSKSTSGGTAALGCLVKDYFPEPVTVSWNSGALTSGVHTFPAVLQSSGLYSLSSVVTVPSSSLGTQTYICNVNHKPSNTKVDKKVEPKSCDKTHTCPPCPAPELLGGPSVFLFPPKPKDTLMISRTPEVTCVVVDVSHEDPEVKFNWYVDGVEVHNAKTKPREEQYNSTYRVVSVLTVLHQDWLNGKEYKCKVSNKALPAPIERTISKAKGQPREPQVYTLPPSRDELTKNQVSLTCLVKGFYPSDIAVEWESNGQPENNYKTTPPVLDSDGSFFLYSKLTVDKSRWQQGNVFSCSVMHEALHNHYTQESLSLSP
light: B1 light
notes: also called Ho Ab K334_12R
B33: GpH7-B3 variant H268_14T/GpL16-k0 (antibody, human IgG1, kappa)
heavy: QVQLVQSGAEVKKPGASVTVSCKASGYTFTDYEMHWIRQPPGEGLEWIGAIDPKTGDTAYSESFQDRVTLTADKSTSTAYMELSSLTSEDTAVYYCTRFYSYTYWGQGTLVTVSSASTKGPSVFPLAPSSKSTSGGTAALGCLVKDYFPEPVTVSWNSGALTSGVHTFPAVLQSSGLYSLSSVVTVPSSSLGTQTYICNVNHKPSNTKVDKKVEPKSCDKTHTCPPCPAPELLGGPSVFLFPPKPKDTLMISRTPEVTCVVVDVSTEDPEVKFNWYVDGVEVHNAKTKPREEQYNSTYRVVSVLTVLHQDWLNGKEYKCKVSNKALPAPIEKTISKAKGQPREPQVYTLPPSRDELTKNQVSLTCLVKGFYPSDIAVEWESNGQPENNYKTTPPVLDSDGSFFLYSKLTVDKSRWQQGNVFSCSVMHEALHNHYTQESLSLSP
light: B1 light
notes: also called Ho Ab H268_14T
B34: GpH7-B3 variant K326_12R/GpL16-k0 (antibody, human IgG1, kappa)
heavy: not shown
light: B1 light
notes: also called Ho Ab K326_12R
B35: GpH7-B3 variant L234_15Y/GpL16-k0 (antibody, human IgG1, kappa)
heavy: not shown
light: B1 light
notes: also called Ho Ab L234_15Y
B36: GpH7-B3 variant L328_10E/GpL16-k0 (antibody, human IgG1, kappa)
heavy: not shown
light: B1 light
notes: also called Ho Ab L328_10E
B37: GpH7-B3 variant K326_18N/GpL16-k0 (antibody, human IgG1, kappa)
heavy: not shown
light: B1 light
notes: also called Ho Ab K326_18N
B38: GpH7-B3 variant P238_08L/GpL16-k0 (antibody, human IgG1, kappa)
heavy: not shown
light: B1 light
notes: also called Ho Ab P238_08L
B39: GpH7-B3 variant P238_15Y/GpL16-k0 (antibody, human IgG1, kappa)
heavy: not shown
light: B1 light
notes: also called Ho Ab P238_15Y
B40: GpH7-B3 variant L328_14T/GpL16-k0 (antibody, human IgG1, kappa)
heavy: not shown
light: B1 light
notes: also called Ho Ab L328_14T
B41: GpH7-B3 variant K326_14T/GpL16-k0 (antibody, human IgG1, kappa)
heavy: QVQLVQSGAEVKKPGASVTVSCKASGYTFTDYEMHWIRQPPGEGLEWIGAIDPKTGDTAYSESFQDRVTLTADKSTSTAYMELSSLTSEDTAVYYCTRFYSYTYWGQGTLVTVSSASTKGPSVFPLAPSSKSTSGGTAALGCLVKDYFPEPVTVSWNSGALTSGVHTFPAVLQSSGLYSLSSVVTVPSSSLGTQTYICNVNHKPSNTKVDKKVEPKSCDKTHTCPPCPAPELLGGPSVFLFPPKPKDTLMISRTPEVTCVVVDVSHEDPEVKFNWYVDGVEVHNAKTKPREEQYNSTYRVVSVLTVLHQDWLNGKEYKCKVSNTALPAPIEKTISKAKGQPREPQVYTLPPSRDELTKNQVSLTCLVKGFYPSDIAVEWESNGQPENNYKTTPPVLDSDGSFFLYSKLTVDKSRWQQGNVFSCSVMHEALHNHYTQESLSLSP
light: B1 light
notes: also called Ho Ab K326_14T
B42: GpH7-B3 variant L328_20W/GpL16-k0 (antibody, human IgG1, kappa)
heavy: not shown
light: B1 light
notes: also called Ho Ab L328_20W
B43: GpH7-B3 variant P329_01G/GpL16-k0 (antibody, human IgG1, kappa)
heavy: not shown
light: B1 light
notes: also called Ho Ab P329_01G
B44: GpH7-B3 variant K326_16H/GpL16-k0 (antibody, human IgG1, kappa)
heavy: not shown
light: B1 light
notes: also called Ho Ab K326_16H
B45: GpH7-B3 variant L234_07I/GpL16-k0 (antibody, human IgG1, kappa)
heavy: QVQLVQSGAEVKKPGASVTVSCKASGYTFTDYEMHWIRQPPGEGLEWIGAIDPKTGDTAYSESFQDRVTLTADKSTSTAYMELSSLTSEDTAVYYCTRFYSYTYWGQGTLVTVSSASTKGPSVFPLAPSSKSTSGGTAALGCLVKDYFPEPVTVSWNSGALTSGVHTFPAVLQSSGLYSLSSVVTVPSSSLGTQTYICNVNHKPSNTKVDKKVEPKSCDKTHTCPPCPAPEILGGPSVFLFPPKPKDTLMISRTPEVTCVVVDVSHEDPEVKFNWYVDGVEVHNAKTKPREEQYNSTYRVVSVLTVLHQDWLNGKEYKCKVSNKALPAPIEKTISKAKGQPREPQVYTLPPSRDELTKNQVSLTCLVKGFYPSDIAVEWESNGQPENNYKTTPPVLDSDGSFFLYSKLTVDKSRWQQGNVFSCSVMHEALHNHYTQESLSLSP
light: B1 light
notes: also called Ho Ab L234_07I
B46: GpH7-B3 variant H268_07I/GpL16-k0 (antibody, human IgG1, kappa)
heavy: not shown
light: B1 light
notes: also called Ho Ab H268_07I
B47: GpH7-B3 variant Q295_15Y/GpL16-k0 (antibody, human IgG1, kappa)
heavy: not shown
light: B1 light
notes: also called Ho Ab Q295_15Y
B48: GpH7-B3 variant H268_20W/GpL16-k0 (antibody, human IgG1, kappa)
heavy: not shown
light: B1 light
notes: also called Ho Ab H268_20W
B49: GpH7-B3 variant P238_03V/GpL16-k0 (antibody, human IgG1, kappa)
heavy: not shown
light: B1 light
notes: also called Ho Ab P238_03V
B50: GpH7-B3 variant I336_10E/GpL16-k0 (antibody, human IgG1, kappa)
heavy: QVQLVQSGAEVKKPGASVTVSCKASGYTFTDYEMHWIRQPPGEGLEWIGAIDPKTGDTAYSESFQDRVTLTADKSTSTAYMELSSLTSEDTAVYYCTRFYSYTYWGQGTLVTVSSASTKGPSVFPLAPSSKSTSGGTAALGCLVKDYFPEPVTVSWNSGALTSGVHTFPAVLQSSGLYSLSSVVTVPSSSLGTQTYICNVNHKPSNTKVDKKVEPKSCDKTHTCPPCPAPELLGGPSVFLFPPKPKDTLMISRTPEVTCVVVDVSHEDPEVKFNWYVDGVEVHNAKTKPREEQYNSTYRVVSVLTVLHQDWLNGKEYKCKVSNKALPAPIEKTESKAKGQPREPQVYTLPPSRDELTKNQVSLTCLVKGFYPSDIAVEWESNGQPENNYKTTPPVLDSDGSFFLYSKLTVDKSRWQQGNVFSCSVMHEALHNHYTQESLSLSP
light: B1 light
notes: also called Ho Ab I336_10E
B51: GpH7-B3 variant L328_03V/GpL16-k0 (antibody, human IgG1, kappa)
heavy: not shown
light: B1 light
notes: also called Ho Ab L328_03V
B52: GpH7-B3 variant H268_08L/GpL16-k0 (antibody, human IgG1, kappa)
heavy: not shown
light: B1 light
notes: also called Ho Ab H268_08L
B53: GpH7-B3 variant I332_12R/GpL16-k0 (antibody, human IgG1, kappa)
heavy: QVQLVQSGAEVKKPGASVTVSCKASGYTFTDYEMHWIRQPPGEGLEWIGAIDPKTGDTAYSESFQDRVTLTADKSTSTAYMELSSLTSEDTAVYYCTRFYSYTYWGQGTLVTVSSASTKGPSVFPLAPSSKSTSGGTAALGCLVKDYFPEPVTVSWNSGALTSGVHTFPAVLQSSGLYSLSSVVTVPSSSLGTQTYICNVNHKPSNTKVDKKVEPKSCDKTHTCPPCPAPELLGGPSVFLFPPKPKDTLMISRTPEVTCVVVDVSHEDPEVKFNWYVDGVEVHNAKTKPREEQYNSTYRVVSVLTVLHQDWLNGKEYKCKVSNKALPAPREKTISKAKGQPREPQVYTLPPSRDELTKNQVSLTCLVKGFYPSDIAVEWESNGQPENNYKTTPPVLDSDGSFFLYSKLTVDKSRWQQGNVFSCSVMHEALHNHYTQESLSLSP
light: B1 light
notes: also called Ho Ab I332_12R
B54: GpH7-B3 variant P271_15Y/GpL16-k0 (antibody, human IgG1, kappa)
heavy: not shown
light: B1 light
notes: also called Ho Ab P271_15Y
B55: GpH7-B3 variant H268_12R/GpL16-k0 (antibody, human IgG1, kappa)
heavy: not shown
light: B1 light
notes: also called Ho Ab H268_12R
B56: GpH7-B3 variant K334_20W/GpL16-k0 (antibody, human IgG1, kappa)
heavy: not shown
light: B1 light
notes: also called Ho Ab K334_20W
B57: GpH7-B3 variant Q295_09D/GpL16-k0 (antibody, human IgG1, kappa)
heavy: not shown
light: B1 light
notes: also called Ho Ab Q295_09D

What follows are binders tested against T1, FcγRIa (human, UniProt P12314 16-292) (assay: SPR (Biacore); He Ab relative to HeCon Ab = 100).
T1 construct: extracellular domain; also called FcgRI; 1a
T1 sequence (P12314 16-292): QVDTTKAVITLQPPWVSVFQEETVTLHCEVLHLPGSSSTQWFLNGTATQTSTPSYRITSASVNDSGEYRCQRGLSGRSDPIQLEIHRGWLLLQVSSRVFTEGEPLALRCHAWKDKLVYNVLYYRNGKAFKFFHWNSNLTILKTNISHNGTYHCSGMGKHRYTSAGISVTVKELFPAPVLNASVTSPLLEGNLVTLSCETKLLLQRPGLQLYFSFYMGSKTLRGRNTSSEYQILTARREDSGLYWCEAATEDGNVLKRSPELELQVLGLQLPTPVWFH
Protocol: (§1) Analysis of interaction between objective antibody and the FcγR was carried out using Biacore T100 (GE Healthcare). HBS-EP+ (GE Healthcare) was used as the running buffer, and the measurement temperature was set to 25° C. Chips produced by immobilizing the antigen peptide by the amine coupling method to a Series S Sencor Chip CM5 (GE Healthcare), or alternatively, chips produced by allowing preliminarily biotinylated antigen peptides to interact with and immobilize onto a Series S Sensor Chip SA (certified) (GE Healthcare) were used. Antibodies of interest were captured onto an antigen peptide-immobilized chip, and allowed to interact to each FcγR diluted with running buffer. To regenerate and repeatedly use the chip, the antibodies captured on the chip were washed off by reacting 10 mM glycine-HCl, pH 1.5.

| He/Con_1a | Binder |
| --- | --- |
| 104 % of control | B1 |
| 103 % of control | B2 |
| 103 % of control | B3 |
| 103 % of control | B4 |
| 103 % of control | B5 |
| 104 % of control | B6 |

These binders were tested against T1, FcγRIa (assay: SPR (Biacore); Ho Ab relative to HoCon Ab = 100).
Protocol: as §1

| Ho/Con_1a | Binder |
| --- | --- |
| 108 % of control | B7 |
| 104 % of control | B8 |
| 103 % of control | B9 |
| 98.7 % of control | B10 |
| 102 % of control | B11 |
| 99.1 % of control | B12 |
| 99.5 % of control | B13 |
| 98.2 % of control | B14 |
| 100 % of control | B15 |
| 102 % of control | B16 |
| 104 % of control | B17 |
| 93.5 % of control | B18 |
| 98.2 % of control | B19 |
| 104 % of control | B20 |
| 101 % of control | B21 |
| 91.8 % of control | B22 |
| 107 % of control | B23 |
| 99.3 % of control | B24 |
| 99.9 % of control | B25 |
| 105 % of control | B26 |
| 99.4 % of control | B27 |
| 96.5 % of control | B28 |
| 104 % of control | B29 |
| 79.6 % of control | B30 |
| 104 % of control | B31 |
| 102 % of control | B32 |

| Ho/Con_1a | Binder |
| --- | --- |
| 109 % of control | B33 |
| 100 % of control | B34 |
| 98.9 % of control | B35 |
| 101 % of control | B36 |
| 102 % of control | B37 |
| 100 % of control | B38 |
| 99 % of control | B39 |
| 98.6 % of control | B40 |
| 103 % of control | B41 |
| 99.9 % of control | B42 |
| 89.5 % of control | B43 |
| 101 % of control | B44 |
| 99.5 % of control | B45 |
| 106 % of control | B46 |
| 97 % of control | B47 |
| 106 % of control | B48 |
| 97.9 % of control | B49 |
| 107 % of control | B50 |
| 99.2 % of control | B51 |
| 105 % of control | B52 |
| 93.2 % of control | B53 |
| 99.4 % of control | B54 |
| 105 % of control | B55 |
| 104 % of control | B56 |
| 96.8 % of control | B57 |
